Test [1] has as its target T1, VEGF (UniProt P15692-4 27-191, limits assumed).
T1 construct: Coupled covalently to the biosensor chip; also called VEGF antigen; VEGF (109)
The test is described as follows: BIAcore SPR, VEGF coupled to the chip, full-length antibody injected; Kd = koff/kon; original FR1 subgroup III sequence (pxVG11VNERK). The procedure: (§1) The VEGF-binding affinities of full length antibodies produced in bacterial cells were calculated from association and disassociation rate constants measured using a BIAcore™-2000 surface plasmon resonance system (BIAcore, Inc., Piscataway, N.J.) as described in Chen et al, (1999) J. Mol. Bio. 293:865-881). A biosensor chip was activated for covalent coupling of VEGF using N-ethyl-N′-(3-dimethylaminopropyl)-carbo-dimide hydrochloride (EDC) and N-hydroxysuccinimid (NHS) according to the supplier's (BIAcore, Inc., Piscataway, N.J.) instructions. VEGF (109) or VEGF (165) was buffer-exchanged into 20 mM sodium acetate, pH 4.8 and diluted to approximately […] to achieve approximately 700-1400 response units (RU) of coupled protein. A solution of 1 M ethanolamine was injected as a blocking agent.
(§2) For kinetics measurements, twofold serial dilutions of full length antibodies were injected in PBS/Tween buffer (0.05% Tween-20 in phosphate-buffered saline) at 25° C. or 37° C. at a flow rate of 10 μl/minute. Equilibrium dissociation constants, Kd values from SPR measurements were calculated as koff/kₒₙ.
(§3) To determine if the FR1 subgroup substitutions had any effect on the binding affinity for VEGF antigen, an affinity assay was performed using the expressed antibodies obtained from bacterial cells.

Test [2] addresses T1, VEGF. The test is described as follows: BIAcore SPR, VEGF coupled to the chip, full-length antibody injected; Kd = koff/kon; subgroup I sequence substitution (pVKFR1-2). The method, then: as §1, §2, §3

T1 sequence (P15692 other isoform, or with tags, fused parts or gaps limits assumed): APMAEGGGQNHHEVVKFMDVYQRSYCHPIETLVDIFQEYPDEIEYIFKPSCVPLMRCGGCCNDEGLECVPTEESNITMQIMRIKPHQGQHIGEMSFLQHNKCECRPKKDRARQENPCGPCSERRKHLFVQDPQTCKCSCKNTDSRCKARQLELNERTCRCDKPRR

B1: anti-VEGF antibody VNERK with heavy chain FR1 subgroup III sequence (plasmid pxVG11VNERK) (antibody, V domains shown)
VH: EVQLVESGGGLVQPGGSLRLSCAASGYTFTNYGINWVRQAPGKGLEWVGWINTYTGEPTYAADFKRRFTFSLDTSKSTAYLQMNSLRAEDTAVYYCAKYPHYYVNERKSHWYFDVWGQGTLVTVSS
VL: DIQLTQSPSSLSASVGDRVTITCSASQDISNYLNWYQQKPGKAPKVLIYFTSSLHSGVPSRFSGSGSGTDFTLTISSLQPEDFATYYCQQYSTVPWTFGQGTKVEIKR
notes: Full-length humanized antibody made in E. coli (aglycosylated); also called anti-VEGF (VNERK); xVEGF (VNERK)
Regarding B1, the affinity with VEGF [1], expressed as Kd, was 0.12 nM.

B2: anti-VEGF antibody VNERK with heavy chain FR1 subgroup I consensus sequence (plasmid pVKFR1-2) (antibody, V domains shown)
VH: QVQLVQSGAEVKKPGASVKVSCKASGYTFTNYGINWVRQAPGKGLEWVGWINTYTGEPTYAADFKRRFTFSLDTSKSTAYLQMNSLRAEDTAVYYCAKYPHYYVNERKSHWYFDVWGQGTLVTVSS
VL: DIQLTQSPSSLSASVGDRVTITCSASQDISNYLNWYQQKPGKAPKVLIYFTSSLHSGVPSRFSGSGSGTDFTLTISSLQPEDFATYYCQQYSTVPWTFGQGTKVEIKR
notes: Full-length antibody made in E. coli; differs from VNERK (pxVG11VNERK) by 12 substitutions in heavy chain FR1 (subgroup III to subgroup I); also called pVKFR1-2 (FR1 = SGI); VNERK HCFR1=SGI
Molecule B2 came in with a Kd with VEGF [2] of 0.19 nM.

For the origin of these results see patent US20040229310A1 (Genentech, published 2004).
